± gives the standard error. Variants at the floor of the assay were thinned out.
B1: glmS ribozyme (parent)
chain: AUAAAAGCGCCAGAACUACAGAAAUGUAGUUGACGAGGAGGAGGUUUAUCGAAUUUUCGGCGGAUGCCUCCAAA

What was measured:
Conditions in all cases: with glucosamine-6-phosphate
[1] = variants of: B1; assay: self-cleavage kobs at 40 uM GlcN6P; higher = faster cleavage; RNA array
Summary of the method: (§1)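 Barcoded ribozyme variants, transcribed in situ by E. coli RNA polymerase on sequenced MiSeq chips, were followed via a hybridised Cy3 probe at 37 °C. Glucosamine-6-phosphate ranged from 40 μM to 10 mM in HEPES/KCl/Mg(OAc)2 buffer. kobs came from decay fits to per-tile medians, and kcat and KM from weighted Michaelis–Menten fits.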

[2] = variants of: B1; assay: self-cleavage kobs at 160 uM GlcN6P; higher = faster cleavage; RNA array
Summary of the method: as §1

[3] = variants of: B1; assay: self-cleavage kobs at 10000 uM GlcN6P; higher = faster cleavage; RNA array
Summary of the method: as §1

[4] = variants of: B1; assay: self-cleavage kobs at 640 uM GlcN6P; higher = faster cleavage; RNA array
Summary of the method: as §1

[5] = variants of: B1; assay: self-cleavage kobs at 2500 uM GlcN6P; higher = faster cleavage; RNA array
Summary of the method: as §1

Variant | self-cleavage kobs at 40 uM GlcN6P [1] [s⁻¹] | self-cleavage kobs at 160 uM GlcN6P [2] [s⁻¹] | self-cleavage kobs at 10000 uM GlcN6P [3] [s⁻¹] | self-cleavage kobs at 640 uM GlcN6P [4] [s⁻¹] | self-cleavage kobs at 2500 uM GlcN6P [5] [s⁻¹]
C58A G60A | < 1e-05 | < 1e-05 | < 1e-05 | – | –
U49A G60C | < 1e-05 | – | < 1e-05 | < 1e-05 | < 1e-05
G38U U49A C58A | < 1e-05 | – | – | – | –
A53G C68U | 0.000296 ± 4.8e-05 | 0.00034 ± 7.7e-05 | 0.00554 ± 0.0012 | 0.00399 ± 0.00064 | 0.00239 ± 0.00052
A42G U45C | 5.93e-05 ± 2.9e-05 | – | – | – | –
G9U C68U C70U | < 1e-05 | < 1e-05 | < 1e-05 | < 1e-05 | < 1e-05
A12U G41U A42G | 0.000102 ± 1.6e-05 | – | 0.00149 ± 0.0003 | – | –
U56G U65A | 3.91e-05 ± 7.3e-06 | – | 0.0026 ± 0.0003 | 0.000245 ± 6.8e-05 | 0.000827 ± 0.0002
G9A C70A | < 1e-05 | < 1e-05 | < 1e-05 | < 1e-05 | < 1e-05
U30A U55A C61A | < 1e-05 | – | – | – | < 1e-05
U31A G59C | < 1e-05 | < 1e-05 | < 1e-05 | < 1e-05 | < 1e-05
C10U C34G G41U A52U C58A G66A C71A | < 1e-05 | – | – | – | –
C11U A64U | < 1e-05 | < 1e-05 | – | < 1e-05 | –
G32U A52C | < 1e-05 | – | < 1e-05 | < 1e-05 | –
G7U G9C | < 1e-05 | < 1e-05 | < 1e-05 | < 1e-05 | < 1e-05
G9C U57C C71A | < 1e-05 | – | < 1e-05 | – | –
G9C U31G U54C | < 1e-05 | – | – | – | –
C10G C16G G40U | < 1e-05 | – | – | – | < 1e-05
A6C A14U G41U C70U | < 1e-05 | – | – | – | –
A42C C61A | < 1e-05 | < 1e-05 | < 1e-05 | – | < 1e-05
G38C G63U | < 1e-05 | – | – | – | –
U47G C58A G59A C70A | 4.75e-05 ± 1.8e-05 | – | – | – | –
C10G A42C | < 1e-05 | – | – | – | –

Variant | self-cleavage kobs at 40 uM GlcN6P [1] [s⁻¹] | self-cleavage kobs at 160 uM GlcN6P [2] [s⁻¹] | self-cleavage kobs at 10000 uM GlcN6P [3] [s⁻¹] | self-cleavage kobs at 640 uM GlcN6P [4] [s⁻¹] | self-cleavage kobs at 2500 uM GlcN6P [5] [s⁻¹]
C16U A48U G62U | < 1e-05 | – | < 1e-05 | < 1e-05 | –
G29C U30C G38C G44A A48C U55G | < 1e-05 | – | < 1e-05 | – | < 1e-05
A6G G59A A64U | < 1e-05 | – | < 1e-05 | < 1e-05 | –
A15C G35U A36G U65C C68A | < 1e-05 | – | < 1e-05 | – | –
G29U C34A | < 1e-05 | < 1e-05 | < 1e-05 | – | < 1e-05
C8U C11U A12C A48G G62A C67U | < 1e-05 | – | < 1e-05 | – | < 1e-05
C8G G9U | < 1e-05 | – | – | < 1e-05 | < 1e-05
U49C G66C | < 1e-05 | < 1e-05 | < 1e-05 | < 1e-05 | –
C67G C70G | < 1e-05 | – | < 1e-05 | – | –
C10U C11G G43C G59A | < 1e-05 | < 1e-05 | – | – | < 1e-05
C34A A36G A39C | < 1e-05 | – | < 1e-05 | – | < 1e-05
A33C A64C | < 1e-05 | < 1e-05 | < 1e-05 | < 1e-05 | < 1e-05
C50G U57A C58G | 8.29e-05 ± 2.4e-05 | 0.000517 ± 0.00012 | – | 0.000297 ± 9.4e-05 | 7.43e-05 ± 2.1e-05
C8U G9U | < 1e-05 | < 1e-05 | – | < 1e-05 | < 1e-05
C8G G13U U30C G43U | < 1e-05 | – | – | – | –
G7U G35C | < 1e-05 | < 1e-05 | < 1e-05 | < 1e-05 | < 1e-05
A12C G32U C71A | < 1e-05 | – | – | – | –
U30A U56C A64G | < 1e-05 | – | 2.96e-05 ± 1.4e-05 | – | –
C8U A33C C71A | < 1e-05 | – | – | – | –
C34A U45C | < 1e-05 | < 1e-05 | < 1e-05 | < 1e-05 | < 1e-05
A39G A53C | 0.000254 ± 5.4e-05 | 0.000658 ± 0.00016 | 0.0216 ± 0.0083 | 0.00303 ± 0.00075 | 0.0068 ± 0.0017
G7A A36C | < 1e-05 | < 1e-05 | < 1e-05 | – | –

From the supplement of paper PMC7125110
